Where two headings read alike, the source gives them in different places. One block for each molecule: values may come before it.
Columns and labels:
[1] = target: mono-nucleosome with extra-nucleosomal linker DNA (185-bp '601'), Oregon green 488 on H2B D51C (NCP^185) (human) (UniProt Q6FI13); experiment: other fluorescence titration
BARD1 141-216 [2] = target: T1, BARD1 141-216 (UniProt Q99728 141-216); experiment: NMR
BARD1 124-270 = BARD1 124-270 (UniProt Q99728 124-270); experiment: NMR
BARD1 141-216 [3] = target: T1, BARD1 141-216; experiment: NMR; remark: listed apart in the source

T1 sequence (Q99728 141-216): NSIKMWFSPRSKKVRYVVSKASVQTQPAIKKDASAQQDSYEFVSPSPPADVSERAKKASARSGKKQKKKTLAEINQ
Sequence of BARD1 124-270 (Q99728 124-270): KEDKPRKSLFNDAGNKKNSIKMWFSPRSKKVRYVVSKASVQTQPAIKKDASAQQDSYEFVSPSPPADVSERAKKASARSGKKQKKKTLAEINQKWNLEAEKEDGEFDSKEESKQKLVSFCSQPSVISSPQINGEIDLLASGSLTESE

fold increase in binding affinity with linker DNA (NCP^185 against NCP^147) [1]: < 2 fold
Molecule: BRCA1^RING/BARD1^216 heterodimer (from UniProt P38398 1-112; Q99728 1-216) (complex)

B1: 36-mer dsDNA (dsDNA)
DNA 1: CCTACGACGCCTGGGGTACCAGCGCAATTGTGTACC
DNA 2: GGTACACAATTGCGCTGGTACCCCAGGCGTCGTAGG
binding result (BARD1 141-216 [2]): binds
binding result (BARD1 124-270): binds

B2: 36-mer bubble-DNA (mixed)
DNA 1: CCTACGACGCCTGGCTCTTTCCCGCAATTGTGTACC
DNA 2: GGTACACAATTGCGCTGGTACCCCAGGCGTCGTAGG
binding result (BARD1 141-216 [3]): binds

Source: article doi:10.1101/2022.08.09.503292
